The values below come from the supplement of paper PMC11246515.

This data set can be described thus: total protein half-life in vivo (active degradation + dilution); higher = more stable protein.
The mark [1] stands for this setting: E. coli NCM3722 delta-clpP delta-lon delta-hslV, growth: N-lim chemostat, doubling time 6 h.
[2] abbreviates: E. coli NCM3722 delta-clpP, growth: N-lim chemostat, doubling time 6 h.
[3] abbreviates: E. coli NCM3722 delta-hslV, growth: N-lim chemostat, doubling time 6 h.
Setting [4] is: E. coli NCM3722 delta-lon, growth: N-lim chemostat, doubling time 6 h.
Setting [5] is: E. coli NCM3722 delta-smpB, growth: N-lim chemostat, doubling time 6 h.
Setting [6] is: wild type E. coli NCM3722, growth: C-lim chemostat, doubling time 3 h.
Setting [7] is: wild type E. coli NCM3722, growth: C-lim chemostat, doubling time 6 h.
[8] abbreviates: wild type E. coli NCM3722, growth: C-lim chemostat, doubling time 12 h.
Where [9] appears, read: wild type E. coli NCM3722, growth: N-lim chemostat, doubling time 6 h.
Setting [10] is: wild type E. coli NCM3722, growth: N-lim chemostat, doubling time 12 h.
Setting [11] is: wild type E. coli NCM3722, growth: P-lim chemostat, doubling time 6 h.
[12] abbreviates: wild type E. coli NCM3722, growth: P-lim chemostat, doubling time 12 h.

± gives the standard deviation of the averaged measurements.

For “MNRTILVPIDISDSELTQRVISHVEEEAKIDDAEVHFLTVIPSLPYYASLGLAYSAELPAMDDLKAEAKSQLEEIIKKFKLPTDRVHVHVEEGSPKDRILELAKKIPAHMIIIASHRPDITTYLLGSNAAAVVRHAECSVLVVR”, the “total protein half-life in vivo” value under setting [1] is 5.69 ± 1.3 h; the “total protein half-life in vivo” value under setting [2] is 4.76 ± 0.38 h; the “total protein half-life in vivo” value under setting [3] is 6.17 ± 2.1 h; the “total protein half-life in vivo” value under setting [4] turned out to be 3.98 ± 0.51 h; the “total protein half-life in vivo” value under setting [5] was found to be 4.47 ± 0.24 h; the “total protein half-life in vivo” value under setting [6] amounted to 3.61 ± 0.042 h. Also, the “total protein half-life in vivo” value was found to be 5.75 ± 0.62 h under setting [7]; 10.3 ± 1.1 h under setting [8]; 4.7255 ± 0.0038 h under setting [9]; 7.83 ± 0.48 h under setting [10]; 5.521 ± 0.026 h under setting [11]; 9.62 ± 1 h under setting [12].

Regarding “MLGLKQVHHIAIIATDYAVSKAFYCDILGFTLQSEVYREARDSWKGDLALNGQYVIELFSFPFPPERPSRPEACGLRHLAFSVDDIDAAVAHLESHNVKCETIRVDPYTQKRFTFFNDPDGLPLELYEQ”, the “total protein half-life in vivo” value reads like this: under setting [1], 3.94 ± 0.96 h; under setting [2], 4.26 ± 0.34 h; under setting [4], 4.65 ± 0.89 h; under setting [5], 3.22 h; under setting [6], 2.51 h; under setting [7], 5.13 h. Moreover, the “total protein half-life in vivo” value under setting [8] was 11.4 h; the “total protein half-life in vivo” value under setting [9] was 3.54 h; the “total protein half-life in vivo” value under setting [10] was determined as 4.57 ± 0.75 h; the “total protein half-life in vivo” value under setting [11] was determined as 6.05 ± 1.1 h; the “total protein half-life in vivo” value under setting [12] was determined as 11.7 ± 0.74 h.

With “MNIFDHYRQRYEAAKDEEFTLQEFLTTCRQDRSAYANAAERLLMAIGEPVMVDTAQEPRLSRLFSNRVIARYPAFEEFYGMEDAIEQIVSYLKHAAQGLEEKKQILYLLGPVGGGKSSLAERLKSLMQLVPIYVLSANGERSPVNDHPFCLFNPQEDAQILEKEYGIPRRYLGTIMSPWAAKRLHEFGGDITKFRVVKVWPSILQQIAIAKTEPGDENNQDISALVGKVDIRKLEHYAQNDPDAYGYSGALCRANQGIMEFVEMFKAPIKVLHPLLTATQEGNYNGTEGISALPFNGIILAHSNESEWVTFRNNKNNEAFLDRVYIVKVPYCLRISEEIKIYEKLLNHSELTHAPCAPGTLETLSRFSILSRLKEPENSSIYSKMRVYDGESLKDTDPKAKSYQEYRDYAGVDEGMNGLSTRFAFKILSRVFNFDHVEVAANPVHLFYVLEQQIEREQFPQEQAERYLEFLKGYLIPKYAEFIGKEIQTAYLESYSEYGQNIFDRYVTYADFWIQDQEYRDPDTGQLFDRESLNAELEKIEKPAGISNPKDFRNEIVNFVLRARANNSGRNPNWTSYEKLRTVIEKKMFSNTEELLPVISFNAKTSTDEQKKHDDFVDRMMEKGYTRKQVRLLCEWYLRVRKSS [P0ACY3]”, the “total protein half-life in vivo” value by setting is: under setting [1], 3.5 ± 0.94 h; under setting [2], 2.691 ± 0.0021 h; under setting [3], 2.49 ± 0.037 h; under setting [4], 2.38 ± 0.24 h; under setting [5], 2.24 ± 0.06 h; under setting [6], 2.76 ± 0.21 h. The “total protein half-life in vivo” value amounted to 3.41 ± 0.25 h under setting [7]; 4.77 ± 0.46 h under setting [8]; 2.48 ± 0.11 h under setting [9]; 3.09 ± 0.1 h under setting [10]; 4.703 ± 0.016 h under setting [11]; 7.66 ± 0.77 h under setting [12].

As to “MLKRKKVKPITLRDVTIIDDGKLRKAITAASLGNAMEWFDFGVYGFVAYALGKVFFPGADPSVQMVAALATFSVPFLIRPLGGLFFGMLGDKYGRQKILAITIVIMSISTFCIGLIPSYDTIGIWAPILLLICKMAQGFSVGGEYTGASIFVAEYSPDRKRGFMGSWLDFGSIAGFVLGAGVVVLISTIVGEANFLDWGWRIPFFIALPLGIIGLYLRHALEETPAFQQHVDKLEQGDREGLQDGPKVSFKEIATKYWRSLLTCIGLVIATNVTYYMLLTYMPSYLSHNLHYSEDHGVLIIIAIMIGMLFVQPVMGLLSDRFGRRPFVLLGSVALFVLAIPAFILINSNVIGLIFAGLLMLAVILNCFTGVMASTLPAMFPTHIRYSALAAAFNISVLVAGLTPTLAAWLVESSQNLMMPAYYLMVVAVVGLITGVTMKETANRPLKGATPAASDIQEAKEILVEHYDNIEQKIDDIDHEIADLQAKRTRLVQQHPRIDE [P0C0L7]”, the “total protein half-life in vivo” value is 5.246 ± 0.018 h under setting [1]; 4.97 ± 0.25 h under setting [2]; 4.59 ± 0.35 h under setting [3]; 4.34 ± 0.14 h under setting [4]; 5.04 ± 0.79 h under setting [5]; 4.62 ± 0.43 h under setting [7]. The “total protein half-life in vivo” value reads like this: under setting [8], 7.56 ± 3.2 h; under setting [9], 4.46 ± 0.41 h; under setting [10], 10.4 ± 2.3 h; under setting [11], 4.78 ± 0.066 h; under setting [12], 7.9 ± 0.16 h.

Consider “MAKNRSRRLRKKMHIDEFQELGFSVAWRFPEGTSEEQIDKTVDDFINEVIEPNKLAFDGSGYLAWEGLICMQEIGKCTEEHQAIVRKWLEERKLDEVRTSELFDVWWD”, for which the “total protein half-life in vivo” value reads like this: under setting [1], 5.96 ± 0.18 h; under setting [2], 6.44 ± 1.1 h; under setting [3], 6.42 ± 0.59 h; under setting [4], 6.34 ± 0.93 h; under setting [5], 5.56 ± 0.31 h; under setting [6], 3.43 ± 0.076 h. Moreover, the “total protein half-life in vivo” value under setting [7] amounted to 5.41 ± 0.22 h; the “total protein half-life in vivo” value under setting [8] was found to be 9.8 ± 0.27 h; the “total protein half-life in vivo” value under setting [9] was 5.26 h; the “total protein half-life in vivo” value under setting [10] was found to be 12.6 ± 0.72 h; the “total protein half-life in vivo” value under setting [11] was 5.22 ± 0.22 h; the “total protein half-life in vivo” value under setting [12] is 11.7 ± 0.92 h.

As to “MRKNTYAMRYVAGQPAERILPPGSFASIGQALPPGEPLSTEERIRILVWNIYKQQRAEWLSVLKNYGKDAHLVLLQEAQTTPELVQFATANYLAADQVPAFVLPQHPSGVMTLSAAHPVYCCPLREREPILRLAKSALVTVYPLPDTRLLMVVNIHAVNFSLGVDVYSKQLLPIGDQIAHHSGPVIMAGDFNAWSRRRMNALYRFAREMSLRQVRFTDDQRRRAFGRPLDFVFYRGLNVSEASVLVTRASDHNPLLVEFSPGKPDK [P0A8U2]”, the “total protein half-life in vivo” value was determined as 4.41 h under setting [2]; 2.48 ± 0.64 h under setting [3]; 3.2 ± 0.29 h under setting [4]; 2.65 ± 0.35 h under setting [5]; 1.62 ± 0.14 h under setting [6]; 2.47 ± 0.035 h under setting [7]. The “total protein half-life in vivo” value runs as follows: under setting [8], 3.514 ± 0.023 h; under setting [9], 2.76 ± 0.092 h; under setting [10], 4.14 ± 0.052 h; under setting [11], 2.42 ± 0.055 h; under setting [12], 3.83 ± 0.2 h.
